Source: patent US20210388105A1 (ELPISCIENCE SUZHOU BIOPHARMA, published 2021)

T1: mouse CD39 (full length, on CHOK1-mCD39 cells) (mouse, UniProt P55772 1-510)
T1 construct: whole, on cells
T1 sequence (looked up): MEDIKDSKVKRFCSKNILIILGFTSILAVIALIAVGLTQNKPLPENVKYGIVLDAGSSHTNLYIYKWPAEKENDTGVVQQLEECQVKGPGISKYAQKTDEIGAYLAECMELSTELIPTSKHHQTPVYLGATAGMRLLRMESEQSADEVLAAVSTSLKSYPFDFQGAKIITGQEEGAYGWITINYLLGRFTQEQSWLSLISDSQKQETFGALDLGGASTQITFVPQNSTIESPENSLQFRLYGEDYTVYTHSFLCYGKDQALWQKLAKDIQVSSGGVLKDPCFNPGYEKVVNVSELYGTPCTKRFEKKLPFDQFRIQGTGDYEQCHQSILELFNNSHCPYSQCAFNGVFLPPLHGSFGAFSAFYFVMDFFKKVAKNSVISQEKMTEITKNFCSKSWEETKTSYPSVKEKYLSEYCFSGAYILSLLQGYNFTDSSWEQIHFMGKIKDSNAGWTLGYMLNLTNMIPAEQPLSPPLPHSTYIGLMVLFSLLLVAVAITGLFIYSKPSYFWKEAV

T2: human CD39 (full length, on cells) (human, UniProt P49961 1-510)
T2 construct: Recombinant on CHOK1-hCD39 cells or natural on SK-MEL-28, SK-MEL-5 and MOLP-8 cells; the cell line is named under assay; also called hCD39; ENTPD1
T2 sequence: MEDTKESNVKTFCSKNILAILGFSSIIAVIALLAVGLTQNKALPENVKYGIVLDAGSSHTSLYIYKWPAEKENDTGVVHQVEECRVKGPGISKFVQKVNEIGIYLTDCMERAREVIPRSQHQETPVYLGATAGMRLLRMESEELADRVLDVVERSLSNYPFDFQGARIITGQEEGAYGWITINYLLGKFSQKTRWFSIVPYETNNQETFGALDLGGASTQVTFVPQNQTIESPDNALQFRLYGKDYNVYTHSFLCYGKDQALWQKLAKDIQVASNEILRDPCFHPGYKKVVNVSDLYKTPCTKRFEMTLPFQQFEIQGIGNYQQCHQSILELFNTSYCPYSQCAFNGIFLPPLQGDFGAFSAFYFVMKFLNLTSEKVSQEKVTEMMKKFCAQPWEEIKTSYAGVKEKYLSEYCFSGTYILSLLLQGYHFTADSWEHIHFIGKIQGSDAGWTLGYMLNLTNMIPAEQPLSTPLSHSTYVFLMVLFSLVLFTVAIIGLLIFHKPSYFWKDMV

T3: 6×His tagged human CD39 (human, UniProt P49961 38-478)
T3 construct: Analyte in the Biacore assay
T3 sequence: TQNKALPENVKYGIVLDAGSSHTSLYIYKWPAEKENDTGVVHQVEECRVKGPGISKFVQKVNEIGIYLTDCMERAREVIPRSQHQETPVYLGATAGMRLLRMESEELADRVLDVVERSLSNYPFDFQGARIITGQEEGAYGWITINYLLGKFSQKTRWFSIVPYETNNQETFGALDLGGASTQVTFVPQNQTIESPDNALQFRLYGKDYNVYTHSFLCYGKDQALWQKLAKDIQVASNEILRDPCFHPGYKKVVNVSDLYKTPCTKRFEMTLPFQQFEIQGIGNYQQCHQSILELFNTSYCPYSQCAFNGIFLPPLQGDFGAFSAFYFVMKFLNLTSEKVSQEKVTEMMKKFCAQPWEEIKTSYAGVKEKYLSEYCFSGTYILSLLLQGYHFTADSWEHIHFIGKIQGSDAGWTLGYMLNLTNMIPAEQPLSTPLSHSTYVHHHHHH


How the values were obtained:
[1] = molecular target: T1, mouse CD39 (full length, on CHOK1-mCD39 …); experiment: FACS, CHOK1-mCD39 cells
Text: FACS were used to determine binding of the antibodies to cell lines expressing CD39 naturally (SK-MEL-28) or recombinantly (CHOK1-hCD39, CHOK1-cynoCD39, and CHOK1-mCD39), or with cells lacking CD39 expression (CHOK1-blank) as a negative control.
CHOK1-hCD39, CHOK1-cCD39, CHOK1-mCD39 and CHOK1-blank cells were maintained in culture medium according to ATCC procedure. Cells were collected and re-suspended in blocking buffer at a density of 3×10⁶ cells/ml. Cells were transferred to 96 well FACS plates at 100 μl/well (3×10⁵ cells/well), the plates were centrifuged and washed twice with FACS buffer (PBS, 1% FBS, 0.05% Tween-20). 4-folds serial dilution of anti-CD39 antibodies were prepared in FACS buffer starting from 30 μg/ml. Reference antibody 9-8B and mouse/human control IgG were used as positive and negative controls, respectively. Cells were re-suspended in 100 μL/well diluted antibodies, and the plates were incubated at 4° C. for 60 min. […] The plates were washed with FACS buffer, and cells were re-suspended in 100 μL/well of PBS. Cells were then analyzed with FACSVerse™ and mean fluorescence intensity were determined. Full binding curves were generated on the CD39 expressing cells by testing a range of antibody concentrations. Apparent affinity was determined for each antibody using Prism software.

[2] = molecular target: T2, human CD39 (full length, on cells); experiment: FACS, SK-MEL-5 cells
Procedure: Similarly, human CD39 expressing cells SK-MEL-5, SK-MEL-28 or MOLP-8, were incubated with a gradient concentration of anti-CD39 antibodies for 30 minutes at 4° C. Cells were washed 3 times using FACS buffer and next incubated with fluorescence labelled secondary antibody (goat-anti-mouse IgG or goat anti-human IgG) for 30 minutes at 4° C. Cells were washed 3 times and then re-suspended in FACS buffer and analyzed by flow cytometry analysis on BD Celesta. Data plotted and analyzed using GraphPad Prism 8.02.
Binding affinity of the humanized antibodies hu23.H5L5 and hu14.H1L1 were tested on different cells by FACS following the similar method as described in Example 3.2.
Reference antibodies T895 and 1394 were tested in parallel as control antibodies. As shown in FIG. 12 and summarized in Table 23, both antibodies hu23.H5L5 and hu14.H1L1 bound to human and cynomolgus CD39 expressing cells in a dose-dependent manner and with similar affinity by EC₅₀ at a sub-nanomolar or nanomolar level. Neither of them recognized mouse CD39 in the FACS study. Maximum signal (mean fluorescence intensity, MFI) differed between cells for each antibody may result from their different expression level.

6×His tagged human CD39 = molecular target: T3, 6×His tagged human CD39; experiment: Biacore SPR, antibody captured on CM5 chip, His-tagged CD39 as analyte
Procedure: In particular, humanized antibodies hu23.H5L5, hu23.201, hu14.H1L1 and reference antibodies 1394 and T895 were characterized for binding affinity against human CD39 using Biacore (GE). Briefly the antibodies to be tested were captured to CM5 chip (GE) using Human Antibody Capture Kit (GE). The antigen of 6×His tagged human CD39 was serially diluted for multiple doses and injected at 30 μl/min for 180s. Buffer flow was maintained for dissociation of 400s. 3 M MgCl2 was used for chip regeneration. The association and dissociation curves were fit with 1:1 binding model, and the Ka/Kd/KD values for each antibody were calculated.

EC50 [2] [nM]	Kd (6×His tagged human CD39) [nM]	koff (6×His tagged human CD39) [s⁻¹]	kon (6×His tagged human CD39) [M⁻¹ s⁻¹]	Binder	binding result [1]
				mAb14 (antibody, V domains shown, mouse hybridoma antibody) VH: EVKLEESGGGLVQPGGSMKLSCVASGFTFSKYWMNWVRQSPEKGLEWVAEIRLKSNKYGTHYAESVKGRFTISRDDSKNNVYLQMNNLRPEDTGIYYCTTQLDLYWFFDVWGAGTTVTVSS VL: DIVMTQSPAILSVTPGDRVSLSCRASQSISDYLHWYQQKSHESPRLLIKYASQSISGIPSRFSGSGSGSNFTLSINSVEPEDVGVYFCQNGHSLPLTFGAGTKLELR	no binding (tested: 30 µg/ml highest concentration)
0.21	1040	0.139	133000	Antibody T895 (antibody, V domains shown, also called 31895) VH: EVQLQQSGPELVKPGASVKMSCKASGYTFTDYNMHWVKQSHGRTLEWIGYIVPLNGGSTFNQKFKGRATLTVNTSSRTAYMELRSLTSEDSAAYYCARGGTRFAYWGQGTLVTVSA VL: not shown	
				Antibody 9-8B (antibody, V domains shown) VH: QIQLVQSGPELKKPGETVKISCKASGYTFTHYGMNWVKQAPGKGLKWMGWINTYTGELTYADDFKGRFAFSLETSASTAYLQINNLKNEDTATYFCARRAYYRYDYVMDYWGQGTSVTVSS VL: DIVMTQSQKFMSTSVGDRVSVTCKASHNVGTNVAWYQQKPGQSPKALIYSASYRYSGVPGRFTGSGSGTDFTLTISNVQSEDLAEYFCHQYNNYPYTFGGGTKLEIK	no binding (tested: 30 µg/ml highest concentration)
0.69	19.5	0.0016	82200	hu23.H5L5 (antibody, V domains shown, humanized c23) VH: QVQLVQSGAEVKKPGASVKVSCKASGYNLKDTFLHWVRQAPGQGLEWMGRIDPANGNIKYDPKFQGRVTITADTSANTAYMELISLRSEDTAVYYCANSPYYYGSGYRIFDVWGQGTTVTVSS VL: QIVLTQSPATLSLSPGERATLSCSAFSSVNYMHWYQQKPGQAPRLLIYTTSNLASGIPTRFSGSGSGTSYTLTISSLEPEDFAVYYCQQRSTYPFTFGQGTKLEIK	
